Where two headings read alike, the source gives them in different places.

To fix the notation:
B1: C4BP^1−5:MAP-1 (other)
chain: NCGPPPTLSFAAPMDITLTETRFKTGTTLKYTCLPGYVRSHSTQTLTCNSDGEWVYNTFCIYKRCRHPGELRNGQVEIKTDLSFGSQIEFSCSEGFFLIGSTTSRCEVQDRGVGWSHPLPQCEIVKCKPPPDIRNGRHSGEENFYAYGFSVTYSCDPRFSLLGHASISCTVENETIGVWRPSPPTCEKITCRKPDVSHGEMVSGFGPIYNYKDTIVFKCQKGFVLRGSSVIHCDADSKWNPSPPACEPNSCINLPDIPHASWETYPRPTKEDVYVVGTVLRYRCHPGYKPTTDEPTTVICQKNLRWTPYQGCEAHTVELNNMFGQIQSPGYPDSYPSDSEVTWNITVPDGFRIKLYFMHFNLESSYLCEYDYVKVETEDQVLATFCGRETTDTEQTPGQEVVLSPGSFMSITFRSDFSNEERFTGFDAHYMAVDVDECKEREDEELSCDHYCHNYIGGYYCSCRFGYILHTDNRTCRVECSDNLFTQRTGVITSPDFPNPYPKSSECLYTIELEEGFMVNLQFEDIFDIEDHPEVPCPYDYIKIKVGPKVLGPFCGEKAPEPISTQSHSVLILFHSDNSGENRGWRLSYRAAGNECPELQPPVHGKIEPSQAKYFFKDQVLVSCDTGYKVLKDNVEMDTFQIECLKDGTWSNKIPTCKKNEIDLESELKSEQVTE
B2: C4BP^1−5:MAP-1 (other)
chain: B1 chain
modifications: (Gly4Ser)3 linker between C4BP CCP1-5 and MAP-1 left out of the pieces; CCP1-5 limits from Sushi 1-5 features; MAP-1 (MAp44, NM_001031849.2) is the 380-aa MASP1 isoform, signal peptide 1-19 removed …
B3: recombinant MAP-1 (natural protein, human, UniProt P48740-3 20-380, looked up)
chain: HTVELNNMFGQIQSPGYPDSYPSDSEVTWNITVPDGFRIKLYFMHFNLESSYLCEYDYVKVETEDQVLATFCGRETTDTEQTPGQEVVLSPGSFMSITFRSDFSNEERFTGFDAHYMAVDVDECKEREDEELSCDHYCHNYIGGYYCSCRFGYILHTDNRTCRVECSDNLFTQRTGVITSPDFPNPYPKSSECLYTIELEEGFMVNLQFEDIFDIEDHPEVPCPYDYIKIKVGPKVLGPFCGEKAPEPISTQSHSVLILFHSDNSGENRGWRLSYRAAGNECPELQPPVHGKIEPSQAKYFFKDQVLVSCDTGYKVLKDNVEMDTFQIECLKDGTWSNKIPTCKKNEIDLESELKSEQVTE

In test [1] the target is T1, recombinant MBL (UniProt P11226 21-248).
The target in another test is T2, recombinant CL-11 (UniProt Q9BWP8 26-271).
T2 construct: collectin-11 (CL-11, CL-K1); Held on mannan-coated wells in the ELISA; also called rCL-11; collectin-11; source: produced in house
Description: ELISA; rMBL or rCL-11 (2 μg/ml) held on mannan-coated wells; serial dilutions of the proteins from 13.5 nM in TBS/Tween/Ca^2+ (5 mM CaCl2), 2 h; detected with biotinylated anti-MASP-1/-3/MAP-1 mAb 8B3; Kd = concentration at half of the maximum binding, fit specific binding with Hill slope, Bmax shared. (ELISA stands for enzyme-linked immunosorbent assay.)

Test [2] addresses T1, recombinant MBL. The test is described as above.
The target of a further test is MAP-1:C4BP^1−5 (human) (UniProt P48740). Description: SEC; 50 μg on Superdex 200 HR 10/30, 0.5 ml/min, TBS/Ca^2+ (5 mM CaCl2); fractions checked by sandwich ELISA (anti-C4BP capture, anti-MAP-1 detection).
The target in test [3] is T1, recombinant MBL. Description: cell-based or functional assay.
The test “C4BP^1−5:MAP-1” concerns the target B1. Description: SEC; 50 μg on Superdex 200 HR 10/30, 0.5 ml/min, TBS/Ca^2+ (5 mM CaCl2); fractions checked by sandwich ELISA (anti-C4BP capture, anti-MAP-1 detection). To be noted: both partners purified.

T1 sequence (P11226 21-248): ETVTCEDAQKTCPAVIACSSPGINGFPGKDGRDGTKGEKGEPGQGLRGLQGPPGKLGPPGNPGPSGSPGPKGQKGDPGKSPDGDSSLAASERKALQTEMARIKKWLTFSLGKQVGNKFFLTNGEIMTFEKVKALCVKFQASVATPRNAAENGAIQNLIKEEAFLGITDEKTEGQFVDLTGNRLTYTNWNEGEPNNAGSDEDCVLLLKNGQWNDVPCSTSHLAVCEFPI
T2 sequence (Q9BWP8 26-271): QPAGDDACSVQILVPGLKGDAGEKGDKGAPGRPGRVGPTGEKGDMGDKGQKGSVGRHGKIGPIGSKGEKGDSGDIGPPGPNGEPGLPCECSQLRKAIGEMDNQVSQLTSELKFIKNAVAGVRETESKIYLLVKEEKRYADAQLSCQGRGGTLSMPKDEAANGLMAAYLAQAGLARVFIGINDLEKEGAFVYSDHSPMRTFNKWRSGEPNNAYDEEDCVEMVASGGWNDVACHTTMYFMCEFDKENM

As to “MAP-1:C4BP^1−5 (from UniProt P48740-3 20-380)”, in the test with recombinant MBL [1], the IC50 of C3 deposition (ELISA; inhibitor pre-incubated on mannan-bound rMBL, then 2% MBL defect serum) was 360 pM; the IC50 of C4 deposition (ELISA; inhibitor pre-incubated on mannan-bound rMBL, then 2% MBL defect serum) was found to be 450 pM; the IC50 of TCC deposition (ELISA; inhibitor pre-incubated on mannan-bound rMBL, then 2% MBL defect serum) was 170 pM. The Kd with recombinant CL-11 stood at 1970 pM. Further, in the test with recombinant MBL [2], the equilibrium dissociation constant (Kd) turned out to be 350 pM. For the same molecule, the stoichiometry N with MAP-1:C4BP^1−5 (human) was 2.
Consider B1, for which, in the test with recombinant MBL [3], the “IC50 of C3 deposition (ELISA; inhibitor pre-incubated on mannan-bound rMBL, then 2% MBL defect serum)” value came out at 7720 pM; the “IC50 of C4 deposition (ELISA; inhibitor pre-incubated on mannan-bound rMBL, then 2% MBL defect serum)” value worked out at 1200 pM; the “IC50 of TCC deposition (ELISA; inhibitor pre-incubated on mannan-bound rMBL, then 2% MBL defect serum)” value came out at 920 pM. The Kd with recombinant MBL [2] (both partners purified) came to 560 pM.
Regarding B2, the “stoichiometry N” value in the test with C4BP^1−5:MAP-1 was 2. In the test with recombinant CL-11 (both partners purified), the Kd is 5490 pM.
Take B3: in the test with recombinant MBL [3], the “IC50 of C3 deposition (ELISA; inhibitor pre-incubated on mannan-bound rMBL, then 2% MBL defect serum)” value was 3350 pM; the “IC50 of C4 deposition (ELISA; inhibitor pre-incubated on mannan-bound rMBL, then 2% MBL defect serum)” value was 140 pM; the “IC50 of TCC deposition (ELISA; inhibitor pre-incubated on mannan-bound rMBL, then 2% MBL defect serum)” value turned out to be 460 pM.

As a reminder, the Kd is the constant that tells how readily two partners part at equilibrium. In general, stoichiometry N refers to a count of units in the complex or per binding partner.

The record behind these values is publication PMC6120983, “Chimeric Proteins Containing MAP-1 and Functional Domains of C4b-Binding Protein Reveal Strong Complement Inhibitory Capacities” (Frontiers in Immunology, 2018).
